US20220195047A1 (TCRCURE BIOPHARMA, published 2022)
Where a chain is given by its changes, count along the chain named.

B1: F02 anti-PD-1 antibody (antibody, V domains shown)
VH: QQPGAELVKPGASVKLSCRASGYTFTNYYLYWVKQRPGQGLEWIGGINPSNGGTNFNEKFRGKATLTVDKSSSTAYMQLSSLTSEDSAVYFCTRRDYNYDGGFDYWGQGSTLTVSS
VL: DIVLTQSPASLAVSLGQRATISCRASKSVSTSGFNYMHWYQQKPGQPPKLLIYLASNLDSGVPARFSGSGSGTDFTLNIHPVEEEDAATYYCQHGRELPLTFGAGTKLELRR
notes: Mouse monoclonal antibody from hybridoma clone #11, detected with anti-mouse IgG F(ab')2; Only the variable domains are tied to F02; also called anti-PD-1 antibody from hybridoma clone #11; clone #11
B2: Ab5 anti-PD-1 antibody (antibody, V domains shown)
VH: QVQLQQSGAEVKKPGSSVKVSCKASGYTFTNYYLYWVRQAPGQGLEWIGGINPSNGGTNFNEKFRGRVTITADESSTTAYMELSSLRSEDTAFYFCTRRDYNYDGGFDYWGQGTTVTVSS
VL: DIVMTQSPSSLSASVGDRVTITCRASKSVSTSGFNYMHWYQQTPGKAPKLLIYLASNLDSGVPARFSGSGSGTDFTFTISSLQEEDIATYYCFHGRELPLTFGQGTKLQITR
notes: Humanized antibody, detected with anti-human IgG Fc
B3: Ab4 anti-PD-1 antibody (antibody, V domains shown)
VH: B2 VH
VL: B2 VL with V3Q
notes: as for B2
B4: Ab8 anti-PD-1 antibody (antibody, V domains shown)
VH: B2 VH with Q1E, Q6E, I48M, S76T, T77S, F93V, F95Y, T97A
VL: DIVMTQSPDSLAVSLGERATINCRASKSVSTSGFNYMHWYQQKPGQPPKLLIYLASNLDSGVPDRFSGSGSGTDFTLTIRPLQAEDVAVYYCQHGRELPLTFGQGTKLEIK
notes: as for B2
B5: Ab7 anti-PD-1 antibody (antibody, V domains shown)
VH: B2 VH with K23R
VL: B2 VL
notes: as for B2
B6: Ab2 anti-PD-1 antibody (antibody, V domains shown)
VH: B2 VH
VL: B2 VL with V3Q, A64S, E84P
notes: as for B2
B7: h11 anti-PD-1 antibody (antibody, V domains shown)
VH: QVQLVQSGAEVKKPGASVKVSCKASGYTFTNYYMYWVRQAPGQGLEWIGGINPSNGGTNFNEKFKNKATMTVDKSTSTAYMELSSLRSEDTAVYYCTRRDYNYDGGFDYWGQGTLVTVSS
VL: DIVLTQSPATLSLSPGERATLSCRASKSVSTSGFNYMHWYQQKPGQAPRLLIFLASNLASGVPARFSGSGSGTDFTLTISSLEPEDFAVYYCQHGRELPLTFGQGTKLEI
notes: Humanized antibody derived from F02, detected with anti-human IgG Fc; also called hl 1

molecular target: T1, human PD-1 protein (hPD-1) on cell surface of 293T-PD-1 cells (human, UniProt Q15116 25-287); test: flow cytometry on 293T-PD-1 cells, 4 C for 60 min, secondary FITC-anti-Mouse IgG F(ab')2; y axis hPD-1%
T1 construct: Human PD-1 expressed in HEK293T cells, either by lentiviral transduction or by the pCMV6-ENTRY PDCD1 cDNA RC210364; also called PDCD1 (RC210364) in HEK293T cells
T1 sequence (Q15116 25-287 limits assumed): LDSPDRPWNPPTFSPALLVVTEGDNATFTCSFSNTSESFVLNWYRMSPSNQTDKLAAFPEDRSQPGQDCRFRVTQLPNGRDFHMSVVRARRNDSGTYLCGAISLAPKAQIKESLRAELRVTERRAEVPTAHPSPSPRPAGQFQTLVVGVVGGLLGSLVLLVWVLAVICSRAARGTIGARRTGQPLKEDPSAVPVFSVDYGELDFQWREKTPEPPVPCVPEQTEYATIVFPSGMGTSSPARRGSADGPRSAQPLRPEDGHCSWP
Protocol: (§1) The cells were then stained with a secondary antibody (APC-anti-Hu IgG Fc for humanized antibodies and FITC-anti-Mouse IgG F(ab′)2 for F02) for 30 minutes (1:50), followed by flow cytometric analysis. The results were analyzed through Prism 7 and Kd values were determined by the program.

Row | EC50 (read off the curve) [µg/mL] | Binder
1 | ~0.01 | B1

molecular target: T1, human PD-1 protein (hPD-1) on cell …; test: flow cytometry on 293T-PD-1 cells, 4 C for 60 min, secondary APC-anti-Hu IgG Fc; y axis hPD-1%
Protocol: as §1

Row | EC50 (read off the curve) [µg/mL] | Binder
2 | ~0.5 | B2
3 | ~3 | B3
4 | ~0.1 | B4
5 | ~0.3 | B5
6 | ~0.4 | B6
7 | ~0.07 | B7

molecular target: T2, recombinant biotinylated human PD-1 (human, UniProt Q15116 25-170, limits assumed, biotinylated (site not stated)); test: ELISA, antibody coated, biotinylated rhPD-1 titrated, Sav-HRP detection
T2 construct: also called rhPD-1; recombinant human PD-1 protein
T2 sequence (Q15116 25-170 limits assumed): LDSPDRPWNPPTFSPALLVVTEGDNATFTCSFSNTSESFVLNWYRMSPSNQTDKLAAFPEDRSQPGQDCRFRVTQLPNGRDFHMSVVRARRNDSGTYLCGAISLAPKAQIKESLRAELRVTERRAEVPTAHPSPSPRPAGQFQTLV
Protocol: 5 μg/ml of anti-PD1 antibody in 100 μl coating buffer was coated in the microwells at 4° C. overnight. By following the ELISA procedure, a 5-fold serial dilution of recombinant biotinylated human PD-1 was added to the assay plate pre-coated with anti-PD1 antibodies. The bound human PD-1 protein was then detected with Sav-HRP reagent. The results were analyzed through Prism 7 and Kd values were determined by the program.

Row | Kd [pM] | Binder
8 | 140 | B1
9 | 320 | B4
10 | 680 | B5
11 | 290 | B7

molecular target: T1, human PD-1 protein (hPD-1) on cell …; test: flow cytometry on 293T-PD-1 cells
Protocol: as §1

Row | Kd [pM] | Binder
12 | 70 | B1
13 | 3690 | B2
14 | 41000 | B3
15 | 650 | B4
16 | 2300 | B5
17 | 3240 | B6
18 | 550 | B7
